Sequences and labels used below:
B1: ADP121 (protein)
chain: MGTLLLVLWLATRGSALYFHIGETEKKCFIEEIPDETMVIGNYRTQLYDKQREEYQPATPGLGMFVEVKDPEDKVILARQYGSEGRFTFTSHTPGEHQICLHSNSTKFSLFAGGMLRVHLDIQVGEHANDYAEIAAKDKLSELQLRVRQLVEQVEQIQKEQNYQRWREERFRQTSESTNQR
modifications: bait human Fc-tagged dimer
B2: ADP383 (protein)
chain: GLKPSCAKEVKSCKGRCFERTFGNCRCDAACVELGNCCLDYQETCIEPEHIWTCNKFRCGEKRLTRSLCACSDDCKDKGDCCINYSSVCQGEKSWVEEPCESINEPQCPAGFETPPTLLFSLDGFRAEYLHTWGGLLPVISKLKKCGTYTKNMRPVYPTKTFPNHYSIVTGLYPESHGIIDNKMYDPKMNASFSLKSKEKFNPEWYKGEPIWVTAKYQGLKSGTFFWPGSDVEINGIFPDIYKMYNGSVPFEERILAVLQWLQLPKDERPHFYTLYLEEPDSSGHSYGPVSSEVIKALQRVDGMVGMLMDGLKELNLHRCLNLILISDHGMEQGSCKKYIYLNKYLGDVKNIKVIYGPAARLRPSDVPDKYYSFNYEGIARNLSCREPNQHFKPYLKHFLPKRLHFAKSDRIEPLTFYLDPQWQLALNPSERKYCGSGFHGSDNVFSNMQALFVGYGPGFKHGIEADTFENIEVYNLMCDLLNLTPAPNNGTHGSLNHLLKNPVYTPKHPKEVHPLVQCPFTRNPRDNLGCSCNPSILPIEDFQTQFNLTVAEEKIIKHETLPYGRPRVLQKENTICLLSQHQFMSGYSQDILMPLWTSYTVDRNDSFSTEDFSNCLYQDFRIPLSPVHKCSFYKNNTKVSYGFLSPPQLNKNSSGIYSEALLTTNIVPMYQSFQVIWRYFHDTLLRKYAEERNGVNVVSGPVFDFDYDGRCDSLENLRQKRRVIRNQEILIPTHFFIVLTSCKDTSQTPLHCENLDTLAFILPHRTDNSESCVHGKHDSSWVEELLMLHRARITDVEHITGLSFYQQRKEPVSDILKLKTHLPTFSQED
modifications: bait human Fc-tagged dimer
B3: ADP096 (protein)
chain: GIQYQTRSPSVCLSEACVSVTSSILSSMDPTVDPCHDFFSYACGGWIKANPVPDGHSRWGTFSNLWEHNQAIIKHLLENSTASVSEAERKAQVYYRACMNETRIEELRAKPLMELIERLGGWNITGPWAKDNFQDTLQVVTAHYRTSPFFSVYVSADSKNSNSNVIQVDQSGLGLPSRDYYLNKTENEKVLTGYLNYMVQLGKLLGGGDEEAIRPQMQQILDFETALANITIPQEKRRDEELIYHKVTAAELQTLAPAINWLPFLNTIFYPVEINESEPIVVYDKEYLEQISTLINTTDRCLLNNYMIWNLVRKTSSFLDQRFQDADEKFMEVMYGTKKTCLPRWKFCVSDTENNLGFALGPMFVKATFAEDSKSIATEIILEIKKAFEESLSTLKWMDEETRKSAKEKADAIYNMIGYPNFIMDPKELDKVFNDYTAVPDLYFENAMRFFNFSWRVTADQLRKAPNRDQWSMTPPMVNAYYSPTKNEIVFPAGILQAPFYTRSSPKALNFGGIGVVVGHELTHAFDDQGREYDKDGNLRPWWKNSSVEAFKRQTECMVEQYSNYSVNGEPVNGRHTLGENIADNGGLKAAYRAYQNWVKKNGAEHSLPTLGLTNNQLFFLGFAQVWCSVRTPESSHEGLITDPHSPSRFRVIGSLSNSKEFSEHFRCPPGSPMNPPHKCEVW
modifications: bait human Fc-tagged dimer
B4: ADP368 (protein)
chain: MERASCLLLLLLPLVHVSATTPEPCELDDEDFRCVCNFSEPQPDWSEAFQCVSAVEVEIHAGGLNLEPFLKRVDADADPRQYADTVKALRVRRLTVGAAQVPAQLLVGALRVLAYSRLKELTLEDLKITGTMPPLPLEATGLALSSLRLRNVSWATGRSWLAELQQWLKPGLKVLSIAQAHSPAFSCEQVRAFPALTSLDLSDNPGLGERGLMAALCPHKFPAIQNLALRNTGMETPTGVCAALAAAGVQPHSLDLSHNSLRATVNPSAPRCMWSSALNSLNLSFAGLEQVPKGLPAKLRVLDLSCNRLNRAPQPDELPEVDNLTLDGNPFLVPGTALPHEGSMN
modifications: bait human Fc-tagged dimer
B5: ADP359 (protein)
chain: MAAEWASRFWLWATLLIPAAAVYEDQVGKFDWRQQYVGKVKFASLEFSPGSKKLVVATEKNVIAALNSRTGEILWRHVDKGTAEGAVDAMLLHGQDVITVSNGGRIMRSWETNIGGLNWEITLDSGSFQALGLVGLQESVRYIAVLKKTTLALHHLSSGHLKWVEHLPESDSIHYQMVYSYGSGVVWALGVVPFSHVNIVKFNVEDGEIVQQVRVSTPWLQHLSGACGVVDEAVLVCPDPSSRSLQTLALETEWELRQIPLQSLDLEFGSGFQPRVLPTQPNPVDASRAQFFLHLSPSHYALLQYHYGTLSLLKNFPQTALVSFATTGEKTVAAVMACRNEVQKSSSSEDGSMGSFSEKSSSKDSLACFNQTYTINLYLVETGRRLLDTTITFSLEQSGTRPERLYIQVFLKKDDSVGYRALVQTEDHLLLFLQQLAGKVVLWSREESLAEVVCLEMVDLPLTGAQAELEGEFGKKADGLLGMFLKRLSSQLILLQAWTSHLWKMFYDARKPRSQIKNEINIDTLARDEFNLQKMMVMVTASGKLFGIESSSGTILWKQYLPNVKPDSSFKLMVQRTTAHFPHPPQCTLLVKDKESGMSSLYVFNPIFGKWSQVAPPVLKRPILQSLLLPVMDQDYAKVLLLIDDEYKVTAFPATRNVLRQLHELAPSIFFYLVDAEQGRLCGYRLRKDLTTELSWELTIPPEVQRIVKVKGKRSSEHVHSQGRVMGDRSVLYKSLNPNLLAVVTESTDAHHERTFIGIFLIDGVTGRIIHSSVQKKAKGPVHIVHSENWVVYQYWNTKARRNEFTVLELYEGTEQYNATAFSSLDRPQLPQVLQQSYIFPSSISAMEATITERGITSRHLLIGLPSGAILSLPKALLDPRRPEIPTEQSREENLIPYSPDVQIHAERFINYNQTVSRMRGIYTAPSGLESTCLVVAYGLDIYQTRVYPS
modifications: bait human Fc-tagged dimer
B6: ADP269 (protein)
chain: SRHQAPCGPQAFAHAAVAADSKVCSDIGRAILQQQGSPVDATIAALVCTSVVNPQSMGLGGGVIFTIYNVTTGKVEVINARETVPASHAPSLLDQCAQALPLGTGAQWIGVPGELRGYAEAHRRHGRLPWAQLFQPTIALLRGGHVVAPVLSRFLHNSILRPSLQASTLRQLFFNGTEPLRPQDPLPWPALATTLETVATEGVEVFYTGRLGQMLVEDIAKEGSQLTLQDLAKFQPEVVDALEVPLGDYTLYSPPPPAGGAILSFILNVLRGFNFSTESMARPEGRVNVYHHLVETLKFAKGQRWRLGDPRSHPKLQNASRDLLGETLAQLIRQQIDGRGDHQLSHYSLAEAWGHGTGTSHVSVLGEDGSAVAATSTINTPFGAMVYSPRTGIILNNELLDLCERCPRGSGTTPSPAVSGDRVGGAPGRCWPPVPGERSPSSMVPSILINKAQGSKLVIGGAGGELIISAVAQAIMSKLWLGFDLRAAIAAPILHVNSKGCVEYEPNFSQEVQRGLQDRGQNQTQRPFFLNVVQAVSQEGACVYAVSDLRKSGEAAGY
modifications: bait human Fc-tagged dimer
B7: ADP316 (protein)
chain: MAAAGAAVARSPGIGAGPALRARRSPPPRAARLPRLLVLLAAAAVGPGAGGAARLYRAGEDAVWVLDSGSVRGATANSSAAWLVQFYSSWCGHCIGYAPTWRALAGDVRDWASAIRVAALDCMEEKNQAVCHDYDIHFYPTFRYFKAFTKEFTTGENFKGPDRELRTVRQTMIDFLQNHTEGSRPPACPRLDPIQPSDVLSLLDNRGSHYVAIVFESNSSYLGREVILDLIPYESIVVTRALDGDKAFLEKLGVSSVPSCYLIYPNGSHGLINVVKPLRAFFSSYLKSLPDVRKKSLPLPEKPHKEENSEIVVWREFDKSKLYTVDLESGLHYLLRVELAAHKSLAGAELKTLKDFVTVLAKLFPGRPPVKKLLEMLQEWLASLPLDRIPYNAVLDLVNNKMRISGIFLTNHIKWVGCQGSRSELRGYPCSLWKLFHTLTVEASTHPDALVGTGFEDDPQAVLQTMRRYVHTFFGCKECGEHFEEMAKESMDSVKTPDQAILWLWKKHNMVNGRLAGHLSEDPRFPKLQWPTPDLCPACHEEIKGLASWDEGHVLTFLKQHYGRDNLLDTYSADQGDSSEGGTLARGEEEEKRLTPPEVSHGDRDTQSVRPPGALGPRPALPESLHHSLDGKLQSLDGPGAHKEVGGAAPFLGVDFSSLDM
modifications: bait human Fc-tagged dimer

For the test, the target named is Circumsporozoite protein (CSP) (Plasmodium falciparum (isolate 3D7), UniProt Q7K740). The test is described as follows: AVEXIS screen signal:noise (double-corrected).
Sequence of Circumsporozoite protein (CSP) (Q7K740 19-374): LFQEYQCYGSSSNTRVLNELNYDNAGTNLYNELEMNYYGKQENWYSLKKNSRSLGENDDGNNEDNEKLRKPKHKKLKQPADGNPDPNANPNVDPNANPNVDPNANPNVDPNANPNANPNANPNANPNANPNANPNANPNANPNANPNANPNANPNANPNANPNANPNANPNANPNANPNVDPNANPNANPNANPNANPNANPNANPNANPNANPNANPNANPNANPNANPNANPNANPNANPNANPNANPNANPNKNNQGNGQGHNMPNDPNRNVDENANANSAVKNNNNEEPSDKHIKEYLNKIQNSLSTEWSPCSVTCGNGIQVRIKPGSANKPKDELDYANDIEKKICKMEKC
Take B1: the binding score was determined as 0.979.

In turn, B2 showed a binding score of 0.856. In the case of B3, the binding score was 0.507. For the molecule B4, the binding score worked out at 1.29. Regarding B5, the binding score is 0.432. As for B6, the binding score turned out to be 0.734. As for B7, the binding score worked out at 1.06.

For the origin of these results see publication PMC11098746 (2024).
